Reference: publication PMC4837458
Substitutions are numbered along the chain they refer to.

Legend:
[1] = tested on: dPPR-U8A2 N318S;D348N;N353S;D383N (designed (synthetic; NTD/CTD from Zea mays PPR10)), PDB:5I9D_1; experiment: EMSA; conditions: 5 mM Mg2+; apparent Kd; EMSA: 25 mM Tris-HCl pH 8.0, 5 mM MgCl2, 5 mM DTT, 0.1 mg/ml BSA, 50 ng/ml heparin, 10% glycerol, ~2 nM 32P-RNA, 20 min on ice
[2] = tested on: dPPR-TN (designed (synthetic; NTD/CTD from Zea mays PPR10)); experiment: EMSA; conditions: 5 mM Mg2+; apparent Kd; EMSA: 25 mM Tris-HCl pH 8.0, 5 mM MgCl2, 5 mM DTT, 0.1 mg/ml BSA, 50 ng/ml heparin, 10% glycerol, ~2 nM 32P-RNA, 20 min on ice
[3] = tested on: dPPR-NN (designed (synthetic; NTD/CTD from Zea mays PPR10)); experiment: EMSA; conditions: 5 mM Mg2+; apparent Kd; EMSA: 25 mM Tris-HCl pH 8.0, 5 mM MgCl2, 5 mM DTT, 0.1 mg/ml BSA, 50 ng/ml heparin, 10% glycerol, ~2 nM 32P-RNA, 20 min on ice
[4] = tested on: T1, dPPR-U8C2 D348S;D383S (designed (synthetic; NTD/CTD from Zea mays PPR10)), PDB:5I9G_1; experiment: EMSA; conditions: 5 mM Mg2+; apparent Kd; EMSA: 25 mM Tris-HCl pH 8.0, 5 mM MgCl2, 5 mM DTT, 0.1 mg/ml BSA, 50 ng/ml heparin, 10% glycerol, ~2 nM 32P-RNA, 20 min on ice
T1 sequence: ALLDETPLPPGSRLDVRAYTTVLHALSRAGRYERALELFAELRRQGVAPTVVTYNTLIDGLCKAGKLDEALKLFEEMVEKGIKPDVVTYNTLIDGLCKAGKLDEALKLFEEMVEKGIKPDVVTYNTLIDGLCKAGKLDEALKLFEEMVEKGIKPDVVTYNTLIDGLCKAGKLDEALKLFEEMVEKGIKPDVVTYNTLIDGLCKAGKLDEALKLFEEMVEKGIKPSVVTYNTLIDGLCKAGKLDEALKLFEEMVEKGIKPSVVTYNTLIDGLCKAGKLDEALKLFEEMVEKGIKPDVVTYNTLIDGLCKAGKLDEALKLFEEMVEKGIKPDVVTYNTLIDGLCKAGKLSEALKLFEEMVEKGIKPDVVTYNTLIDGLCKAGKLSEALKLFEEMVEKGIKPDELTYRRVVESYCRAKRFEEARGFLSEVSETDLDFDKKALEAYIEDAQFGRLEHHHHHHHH

[5] = tested on: dPPR-4 (designed (synthetic; NTD/CTD from Zea mays PPR10)); experiment: EMSA; conditions: 5 mM Mg2+; apparent Kd; EMSA: 25 mM Tris-HCl pH 8.0, 5 mM MgCl2, 5 mM DTT, 0.1 mg/ml BSA, 50 ng/ml heparin, 10% glycerol, ~2 nM 32P-RNA, 20 min on ice
[6] = tested on: dPPR-SD (designed (synthetic; NTD/CTD from Zea mays PPR10)); experiment: EMSA; conditions: 5 mM Mg2+; apparent Kd; EMSA: 25 mM Tris-HCl pH 8.0, 5 mM MgCl2, 5 mM DTT, 0.1 mg/ml BSA, 50 ng/ml heparin, 10% glycerol, ~2 nM 32P-RNA, 20 min on ice
[7] = tested on: dPPR-U8G2 N318T;N353T (designed (synthetic; NTD/CTD from Zea mays PPR10)), PDB:5I9H_1; experiment: EMSA; conditions: 5 mM Mg2+; apparent Kd; EMSA: 25 mM Tris-HCl pH 8.0, 5 mM MgCl2, 5 mM DTT, 0.1 mg/ml BSA, 50 ng/ml heparin, 10% glycerol, ~2 nM 32P-RNA, 20 min on ice
dPPR-U8C2 [8] = target: T2, dPPR-U8C2 (designed (synthetic; NTD/CTD from Zea …, UniProt PDB:5I9G_1 1-460, D348S;D383S); experiment: EMSA; C5,C6 to U; EMSA: 25 mM Tris-HCl pH 8.0, 5 mM MgCl2, 5 mM DTT, 0.1 mg/ml BSA, 50 ng/ml heparin, 10% glycerol, ~2 nM 32P-RNA, 20 min on ice
T2 sequence: T1 sequence

dPPR-U10 [9] = target: T3, dPPR-U10 (designed (synthetic; NTD/CTD from Zea …, UniProt PDB:5I9F_1 1-460); experiment: EMSA; 5 mM Mg2+; apparent Kd; EMSA: 25 mM Tris-HCl pH 8.0, 5 mM MgCl2, 5 mM DTT, 0.1 mg/ml BSA, 50 ng/ml heparin, 10% glycerol, ~2 nM 32P-RNA, 20 min on ice
T3 chain: T1 sequence with S225D, S260D, S348D, S383D

dPPR-U10 [10] = target: T3, dPPR-U10; experiment: X-ray crystallography; 2.20 A; EMSA: 25 mM Tris-HCl pH 8.0, 5 mM MgCl2, 5 mM DTT, 0.1 mg/ml BSA, 50 ng/ml heparin, 10% glycerol, ~2 nM 32P-RNA, 20 min on ice
dPPR-U8C2 [11] = target: T2, dPPR-U8C2; experiment: X-ray crystallography; 2.30 A; EMSA: 25 mM Tris-HCl pH 8.0, 5 mM MgCl2, 5 mM DTT, 0.1 mg/ml BSA, 50 ng/ml heparin, 10% glycerol, ~2 nM 32P-RNA, 20 min on ice

UUUUAAUUUU [U8A2 target] showed a Kd [1] of 23.8 nM and a Kd [2] of 58.9 nM.

Molecule UUUUCCUUUU [U8C2 target] has a Kd [3] of 14.6 nM and a Kd [4] of 18.5 nM.

UUUUUUUUUU [U10 target] gave a Kd [3] of 15.9 nM.

Molecule UUCCAGAU [dPPR-4 target] has a Kd [5] of 24.6 nM.

UUUUGGUUUU [U8G2 target] showed a Kd [6] of 31.1 nM and a Kd [7] of 29.8 nM.

UUUUUUUUUU (ssRNA) [U10 target] was tested, and the binding result (dPPR-U8C2 [8]) was “no binding” and the Kd (dPPR-U10 [9]) was 74.3 ± 7.9 nM.

GGGGUUUUUUUUUUCCCC (ssRNA) [18-nt U10 crystal RNA]: binds (dPPR-U10 [10]).

GGGGUUUUCCUUUUCCCC (ssRNA) [18-nt U8C2 crystal RNA]: binds (dPPR-U8C2 [11]).
